# Reference: patent US20130078661
# Numbering of substitutions follows the chain as printed.
# B1: Recombinant human ADAMTS13 (protein)
# chain: AAGGILHLELLVAVGPDVFQAHQEDTERYVLTNLNIGAELLRDPSLGAQFRVHLVKMVILTEPEGAPNITANLTSSLLSVCGWSQTINPEDDTDPGHADLVLYITRFDLELPDGNRQVRGVTQLGGACSPTWSCLITEDTGFDLGVTIAHEIGHSFGLEHDGAPGSGCGPSGHVMASDGAAPRAGLAWSPCSRRQLLSLLSAGRARCVWDPPRPQPGSAGHPPDAQPGLYYSANEQCRVAFGPKAVACTFAREHLDMCQALSCHTDPLDQSSCSRLLVPLLDGTECGVEKWCSKGRCRSLVELTPIAAVHGRWSSWGPRSPCSRSCGGGVVTRRRQCNNPRPAFGGRACVGADLQAEMCNTQACEKTQLEFMSQQCARTDGQPLRSSPGGASFYHWGAAVPHSQGDALCRHMCRAIGESFIMKRGDSFLDGTRCMPSGPREDGTLSLCVSGSCRTFGCDGRMDSQQVWDRCQVCGGDNSTCSPRKGSFTAGRAREYVTFLTVTPNLTSVYIANHRPLFTHLAVRIGGRYVVAGKMSISPNTTYPSLLEDGRVEYRVALTEDRLPRLEEIRIWGPLQEDADIQVYRRYGEEYGNLTRPDITFTYFQPKPRQAWVWAAVRGPCSVSCGAGLRWVNYSCLDQARKELVETVQCQGSQQPPAWPEACVLEPCPPYWAVGDFGPCSASCGGGLRERPVRCVEAQGSLLKTLPPARCRAGAQQPAVALETCNPQPCPARWEVSEPSSCTSAGGAGLALENETCVPGADGLEAPVTEGPGSVDEKLPAPEPCVGMSCPPGWGHLDATSAGEKAPSPWGSIRTGAQAAHVWTPAAGSCSVSCGRGLMELRFLCMDSALRVPVQEELCGLASKPGSRREVCQAVPCPARWQYKLAACSVSCGRGVVRRILYCARAHGEDDGEEILLDTQCQGLPRPEPQEACSLEPCPPRWKVMSLGPCSASCGLGTARRSVACVQLDQGQDVEVDEAACAALVRPEASVPCLIADCTYRWHVGTWMECSVSCGDGIQRRRDTCLGPQAQAPVPADFCQHLPKPVTVRGCWAGPCVGQGTPSLVPHEEAAAPGRTTATPAGASLEWSQARGLLFSPAPQPRRLLPGPQENSVQSSACGRQHLEPTGTIDMRGPGQADCAVAIGRPLGEVVTLRVLESSLNCSAGDMLLLWGRLTWRKMCRKLLDMTFSSKTNTLVVRQRCGRPGGGVLLRYGSQLAPETFYRECDMQLFGPWGEIVSPSLSPATSNAGGCRLFINVAPHARIAIHALATNMGAGTEGANASYILIRDTHSLRTTAFHGQQVLYWESESSQAEMEFSEGFLKAQASLRGQYWTLQSWVPEMQDPQSWKGKEGT
# B2: ADAMTS13 in human plasma (protein)
# chain: B1 chain
# Legend:
# [1] = molecular target: T1, L-VWF (Venus - VWF 1496-1670 - Cerulean - His tag FRET protein)
# T1 chain: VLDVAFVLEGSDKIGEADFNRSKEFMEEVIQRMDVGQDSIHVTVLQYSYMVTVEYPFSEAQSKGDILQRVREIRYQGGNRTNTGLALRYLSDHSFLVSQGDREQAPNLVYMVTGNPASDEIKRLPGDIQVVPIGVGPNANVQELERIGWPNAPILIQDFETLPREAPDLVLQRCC
# [2] = molecular target: T2, XS-VWF(AA) (XS-VWF with Y1605-M1606 replaced by A1605-A1606)
# T2 chain: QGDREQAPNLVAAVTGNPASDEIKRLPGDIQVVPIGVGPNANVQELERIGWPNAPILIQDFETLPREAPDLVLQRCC
# [3] = molecular target: T3, S-VWF (Venus - VWF 1558-1670 - Cerulean - His tag FRET protein)
# T3 chain: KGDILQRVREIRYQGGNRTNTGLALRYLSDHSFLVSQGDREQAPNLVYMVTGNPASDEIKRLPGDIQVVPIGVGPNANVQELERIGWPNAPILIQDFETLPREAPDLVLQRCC
# [4] = molecular target: Mutant VWF-A2 FRET protein with a change at Pro1645 (P1645A)
# [5] = molecular target: T4, XS-VWF (Venus - VWF 1594-1670 - Cerulean - His tag FRET protein)
# T4 chain: T2 chain with A12Y, A13M
# [6] = molecular target: T5, M-VWF (Venus - VWF 1530-1670 - Cerulean - His tag FRET protein)
# T5 chain: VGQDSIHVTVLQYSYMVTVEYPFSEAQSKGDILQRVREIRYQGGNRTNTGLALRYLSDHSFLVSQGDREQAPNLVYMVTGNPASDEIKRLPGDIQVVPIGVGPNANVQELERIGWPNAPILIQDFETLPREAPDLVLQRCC
# [7] = molecular target: Mutant VWF-A2 FRET protein with Cysteine to Glycine at positions 1669 and 1670 (CC1669-70GG)
# [8] = molecular target: Multimeric human plasma VWF
protein,measurement,setting,value
B1,"FRET ratio after 1 h with ADAMTS13, no denaturant",[1],There was very little change in the FRET ratio of ... L-VWF
same,cleavage at 2M urea after pre-denaturation with 4M urea,[1],>90% cleavage of L-VWF was observed at 2M urea upon inclusion of the pre-denaturation step
same,"extent of cleavage, no urea",[1],"In the absence of urea, the extent of cleavage of both L- and M-VWF was 20%"
same,proteolysis at 1.6M urea,[1],Increasing urea concentration to 1.6M resulted in 30% proteolysis
same,"FRET ratio after 1 h with ADAMTS13, no denaturant",[2],There was very little change in the FRET ratio of ... XS-VWF(AA)
same,"cleavage, western blot with anti-his pAb",[2],XS-VWF but not XS-VWF(AA) was cleaved by recombinant ADAMTS13
same,"FRET ratio after 1 h with ADAMTS13, no denaturant",[3],from 1.24 to 1.84 for S-VWF
same,"extent of cleavage (FRET ratio and western blot), varying urea",[3],Complete cleavage of XS-VWF and S-VWF was observed at urea concentrations <2.8M
same,"cleavage in 1M urea, western blot",[4],changes in the Pro1645 site enhances VWF cleavage even in the presence of low concentrations of urea that are insufficient to cleave the wild-type protein
same,"FRET ratio after 1 h with ADAMTS13, no denaturant",[5],FRET ratio increased from 0.78 to 1.73 for XS-VWF
same,"cleavage, western blot with anti-his pAb",[5],XS-VWF but not XS-VWF(AA) was cleaved by recombinant ADAMTS13
same,"extent of cleavage (FRET ratio and western blot), varying urea",[5],Complete cleavage of XS-VWF and S-VWF was observed at urea concentrations <2.8M
same,"FRET ratio after 1 h with ADAMTS13, no denaturant",[6],There was very little change in the FRET ratio of M-VWF
same,"extent of cleavage, no urea",[6],"In the absence of urea, the extent of cleavage of both L- and M-VWF was 20%"
same,proteolysis at 1.6M urea,[6],Increasing urea concentration to 1.6M resulted in 30% proteolysis
same,"cleavage in 1M urea, western blot",[7],substitution of Cysteine by Glycine at positions 1669 and 1670 enhances VWF A2 domain proteolysis
same,"cleavage after pre-denaturation with 4M urea, western blot",[8],"Proteolysis was however complete at urea>2.4M, provided a pre-denaturation step was included"
same,"cleavage without pre-denaturation, western blot",[8],multimeric VWF was also not fully cleaved when the protein was incubated with varying urea concentrations and ADAMTS13
B2,KM,[3],1.8 µM
same,kcat,[3],0.295 s⁻¹
same,"cleavage by FRET, 20% human plasma, 2 hours, 2M urea",[4],higher cleavage of mutant VWF proteins compared to the wild-type molecule upon addition of low concentrations of urea
same,KM,[5],4.6 µM and KM=4 µM
same,kcat,[5],0.747 s⁻¹
same,"cleavage by FRET, 20% human plasma, 2 hours, 2M urea",[7],higher cleavage of mutant VWF proteins compared to the wild-type molecule upon addition of low concentrations of urea
